From patent US20170015742A1 (published 2017)
Values belong to the binder of their own block, whether it stands above or below them.

How the values were obtained:
[1] = target: T1, Recombinant human FcγRIIb, 6xHis-tagged (human, UniProt P31994 46-217, limits assumed); experiment: Biacore SPR; His-tagged human FcγR captured on anti-6xHis antibody, DVD-Ig injected
T1 construct: Captured through its 6xHis tag; also called huFcRIIb
T1 sequence: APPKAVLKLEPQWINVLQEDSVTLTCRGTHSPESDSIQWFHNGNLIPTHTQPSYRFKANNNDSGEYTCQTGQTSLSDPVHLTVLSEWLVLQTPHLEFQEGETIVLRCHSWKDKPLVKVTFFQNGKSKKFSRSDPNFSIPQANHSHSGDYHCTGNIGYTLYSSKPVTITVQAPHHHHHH
Description: (§1) A CM5 chip (GE Healthcare, Pittsburgh, Pa.) with mouse anti-6×His antibodies (“6×His” disclosed as SEQ ID NO: 405) that were directly immobilized on the chip via amine coupling according to the GE Healthcare protocol to the density of 10000RU (all flow cells) was used for experiments. Human FcγRs were captured on flow cells 2, 3 and 4. Flow cell 1 was used as a reference surface. HBS-EP+ was used as the running buffer. […] The chip surfaces were regenerated with an injection of 10 mM glycine pH 1.5 at a flow rate of 100 μL/minute over all four flow cells after each cycle.

[2] = target: T2, Recombinant human FcγRIIIa F158, 6xHis-tagged (human, UniProt P08637 17-208, limits assumed); experiment: as above
T2 construct: Captured through its 6xHis tag
T2 sequence (P08637 other isoform, or with tags, fused parts or gaps limits assumed): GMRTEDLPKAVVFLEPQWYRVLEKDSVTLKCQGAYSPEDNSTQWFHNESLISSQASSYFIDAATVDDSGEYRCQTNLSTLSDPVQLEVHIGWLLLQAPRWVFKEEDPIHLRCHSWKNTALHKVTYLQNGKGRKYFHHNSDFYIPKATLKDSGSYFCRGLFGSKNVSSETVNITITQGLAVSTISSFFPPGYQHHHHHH
Description: as §1

[3] = target: T3, Recombinant human FcγRIIa R131, 6xHis-tagged (human, UniProt P12318 36-218, limits assumed); experiment: as above
T3 construct: Captured through its 6xHis tag
T3 sequence: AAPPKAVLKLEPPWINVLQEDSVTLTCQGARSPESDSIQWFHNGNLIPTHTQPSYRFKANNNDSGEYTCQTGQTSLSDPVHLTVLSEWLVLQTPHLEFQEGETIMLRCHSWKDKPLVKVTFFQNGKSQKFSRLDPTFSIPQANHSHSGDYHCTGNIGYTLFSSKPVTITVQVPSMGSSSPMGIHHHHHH
Description: as §1

[4] = target: T4, Recombinant human FcγRIIa H131, 6xHis-tagged (human, UniProt P12318 36-218, limits assumed); experiment: as above
T4 construct: Captured through its 6xHis tag
T4 sequence: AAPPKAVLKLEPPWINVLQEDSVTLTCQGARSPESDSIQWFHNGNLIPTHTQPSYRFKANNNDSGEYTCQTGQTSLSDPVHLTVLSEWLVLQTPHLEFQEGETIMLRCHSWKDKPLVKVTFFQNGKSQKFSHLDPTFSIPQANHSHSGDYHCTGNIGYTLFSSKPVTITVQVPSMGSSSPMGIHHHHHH
Description: as §1

Recombinant rat FcRn = target: T5, Recombinant rat FcRn (rat, UniProt P13599 23-298, limits assumed); experiment: Biacore SPR; DVD-Ig immobilised by amine coupling, recombinant FcRn injected; 1:1 binding fit
T5 construct: FcRn is normally a heterodimer with beta-2-microglobulin
T5 sequence (looked up) 1: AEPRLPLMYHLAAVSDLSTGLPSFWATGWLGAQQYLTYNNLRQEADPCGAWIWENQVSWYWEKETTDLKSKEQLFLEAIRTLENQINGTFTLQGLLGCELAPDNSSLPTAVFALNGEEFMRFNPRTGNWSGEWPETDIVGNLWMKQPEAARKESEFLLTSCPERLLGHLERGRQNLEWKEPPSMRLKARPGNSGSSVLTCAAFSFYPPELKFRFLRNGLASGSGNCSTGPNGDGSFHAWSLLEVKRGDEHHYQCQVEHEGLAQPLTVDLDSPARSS
T5 sequence (looked up) 2: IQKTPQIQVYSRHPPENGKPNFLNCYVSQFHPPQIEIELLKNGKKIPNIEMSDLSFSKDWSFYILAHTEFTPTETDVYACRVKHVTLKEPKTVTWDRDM
Description: Human, cynomolgus, mouse, rat and rabbit recombinant FcRns were injected over all the flow cells at a flow rate of 50 μL/minute for 1 minute at a concentrations range of from 2.7 to 6000 nM (three fold serial dilution), followed by a 2 minute dissociation time. The surfaces were regenerated with an injection of 10 mM HCl at 100 μL/minute for 2 seconds followed by an injection of HBS-EP+, pH 7.4, at a flow rate of 50 μL/minute for 30 seconds over all four flow cells. Samples were prepared and run in two running buffer systems, pH 6.0 MES-EP+, and pH […]. Recombinant human FcγRIIIa V158 and rat and mouse FcRn data were fitted to 1:1 kinetic model. Recombinant human FcγRIIa R131 and FcγRIIa H131, FcγRIIIa F158, and recombinant human, cynomolgus and rabbit FcRn binding data were fitted to a steady state affinity model. Biacore T200 Evaluation Software version 2.0 was used to fit all the data.

[5] = target: T6, Recombinant human FcγRIIIa V158, 6xHis-tagged (human, UniProt P08637 17-208, limits assumed); experiment: Biacore SPR; His-tagged huFcγRIIIa 158V captured on anti-6xHis antibody, DVD-Ig injected; steady state fit
T6 construct: Captured through its 6xHis tag; also called huFcRIIIa 158V
T6 sequence (P08637 other isoform, or with tags, fused parts or gaps limits assumed): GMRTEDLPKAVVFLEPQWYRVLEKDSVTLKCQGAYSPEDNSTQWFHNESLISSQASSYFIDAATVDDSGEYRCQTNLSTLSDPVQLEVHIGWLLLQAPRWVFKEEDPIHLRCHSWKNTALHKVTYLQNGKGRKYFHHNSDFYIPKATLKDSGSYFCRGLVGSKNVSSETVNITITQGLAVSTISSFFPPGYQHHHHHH
Description: as §1
The binding of DVD-Ig molecules to FcRn from various species and the binding of DVD-Ig molecules to various FcγRs were characterized by Biacore using the method described in Example 1.2.

Rat PDGF-BB = target: T7, Rat PDGF-BB (rat, UniProt Q05028 74-182); experiment: affinity KD as tabulated in Table 69; method not given
T7 construct: Homodimer of B chains
T7 sequence (Q05028 74-182 limits assumed): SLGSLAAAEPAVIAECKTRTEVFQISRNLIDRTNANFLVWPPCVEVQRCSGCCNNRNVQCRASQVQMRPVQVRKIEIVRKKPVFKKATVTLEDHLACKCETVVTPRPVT

Cynomolgus monkey VEGF-A = target: T8, Cynomolgus monkey VEGF-A (cynomolgus monkey, UniProt P15692 207-395 (human entry)); experiment: as above
T8 construct: also called cyno VEGF
T8 sequence (P15692 other isoform, or with tags, fused parts or gaps limits assumed): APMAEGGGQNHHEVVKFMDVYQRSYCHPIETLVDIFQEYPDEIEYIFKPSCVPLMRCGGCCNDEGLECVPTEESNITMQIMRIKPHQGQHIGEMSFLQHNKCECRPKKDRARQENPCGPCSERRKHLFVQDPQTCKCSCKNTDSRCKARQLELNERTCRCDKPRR

Mouse PDGF-BB = target: T9, Mouse PDGF-BB (mouse, UniProt P31240 82-190); experiment: as above
T9 construct: Homodimer of B chains; also called mo PDGF; mPDGF-BB
T9 sequence (P31240 82-190 limits assumed): as the sequence (Q05028 74-182 limits assumed) above, with V83I, V102I counted along it

Rabbit PDGF-BB = target: T10, Rabbit PDGF-BB (rabbit, UniProt Q05028 74-182 (rat entry)); experiment: as above
T10 construct: also called rab PDGF
T10 sequence (Q05028 74-182 limits assumed): as the sequence (Q05028 74-182 limits assumed) above

[6] = target: T11, Cynomolgus monkey PDGF-BB (cynomolgus monkey, UniProt P01127 82-190 (human entry), limits assumed); experiment: as above
T11 construct: Homodimer of B chains; also called cyno PDGF; cynoPDGF-BB
T11 chain: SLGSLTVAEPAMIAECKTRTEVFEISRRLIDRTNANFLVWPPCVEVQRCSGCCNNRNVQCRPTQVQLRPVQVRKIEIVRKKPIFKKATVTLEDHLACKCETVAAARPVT

[7] = target: T12, recombinant human PDGF-Rβ-Fc (R&D Systems #385-PR) (human, UniProt P09619 33-530); experiment: direct ELISA on coated recombinant human PDGF-Rβ-Fc (Example 1.26)
T12 construct: Bought reagent; also called hPDGFRβ-Fc; huPDGF Rβ; not shown: Fc part of the bought fusion protein
T12 sequence (P09619 33-530 limits assumed): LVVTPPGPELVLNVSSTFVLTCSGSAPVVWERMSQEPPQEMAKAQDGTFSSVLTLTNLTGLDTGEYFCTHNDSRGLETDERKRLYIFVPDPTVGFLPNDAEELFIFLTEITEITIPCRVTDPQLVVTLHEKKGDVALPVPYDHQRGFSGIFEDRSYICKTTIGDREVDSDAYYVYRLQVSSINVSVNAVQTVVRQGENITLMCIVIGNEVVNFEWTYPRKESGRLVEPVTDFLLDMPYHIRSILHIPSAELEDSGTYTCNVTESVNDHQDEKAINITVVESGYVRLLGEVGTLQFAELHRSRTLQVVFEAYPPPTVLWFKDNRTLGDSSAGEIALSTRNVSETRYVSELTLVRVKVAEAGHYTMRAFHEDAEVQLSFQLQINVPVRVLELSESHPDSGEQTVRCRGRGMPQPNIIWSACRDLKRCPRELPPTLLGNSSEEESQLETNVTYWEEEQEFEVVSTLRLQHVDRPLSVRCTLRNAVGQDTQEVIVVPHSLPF
Description: Plates were then washed four times with wash buffer (TBS, 0.05% Tween-20) and blocked with Superblock blocking buffer (Thermo Scientific, cat#37535). During the blocking step, supernatants, antibodies and benchmark compounds were diluted in assay diluent (10% Superblock containing 0.05% surfactamps) and an eight point titration of each sample molecule was performed. […] Following incubation, plates were washed four times with wash buffer. […] Plates were washed four times with wash buffer and developed with the addition of Enhanced K-blue TMB substrate (Neogen, cat#308177). The reaction was stopped with 2N sulfuric acid (VWR, cat# BDH3500-1) and the absorbance was read at 450 nm-570 nm. […] Data was analyzed using Softmax Pro 4.8 software and IC₅₀ values calculated using a sigmoidal dose response (variable slope) fit in GraphPad Prism 5.

[8] = target: T13, recombinant human VEGF-R2-Fc (R&D Systems cat#357-KD) (human, UniProt P35968 20-764); experiment: competition ELISA: antibody on coated hVEGFR2-Fc against biotinylated hVEGF165 (Example 1.23)
T13 construct: Bought reagent; also called hVEGFR2-Fc; hVEGF-R2 (KDR/Flk-1); not shown: Fc part of the bought fusion protein
T13 sequence (P35968 20-764 limits assumed): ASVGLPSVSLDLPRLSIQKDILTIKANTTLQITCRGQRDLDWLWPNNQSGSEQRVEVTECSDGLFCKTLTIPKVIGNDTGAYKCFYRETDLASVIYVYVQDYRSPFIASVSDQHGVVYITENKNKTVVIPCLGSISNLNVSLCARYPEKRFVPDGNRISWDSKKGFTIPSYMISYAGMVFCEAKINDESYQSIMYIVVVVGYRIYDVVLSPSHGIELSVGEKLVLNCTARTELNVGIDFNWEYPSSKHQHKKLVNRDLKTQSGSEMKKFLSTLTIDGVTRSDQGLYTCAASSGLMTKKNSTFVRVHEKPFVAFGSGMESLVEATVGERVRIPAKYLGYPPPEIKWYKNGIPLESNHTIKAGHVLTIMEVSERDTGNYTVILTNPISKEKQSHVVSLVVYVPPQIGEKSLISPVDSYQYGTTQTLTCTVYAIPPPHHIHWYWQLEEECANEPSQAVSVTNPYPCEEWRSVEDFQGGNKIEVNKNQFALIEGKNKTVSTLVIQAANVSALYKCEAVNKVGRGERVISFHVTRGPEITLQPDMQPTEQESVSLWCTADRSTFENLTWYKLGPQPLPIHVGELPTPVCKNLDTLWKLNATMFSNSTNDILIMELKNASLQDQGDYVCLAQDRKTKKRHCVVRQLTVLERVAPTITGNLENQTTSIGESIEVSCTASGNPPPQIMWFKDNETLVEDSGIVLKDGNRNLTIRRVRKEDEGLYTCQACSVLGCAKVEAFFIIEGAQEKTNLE
Description: (§2) To identify molecules which could block the binding of VEGF-R2 (KDR/Flk-1) to hVEGF₁₆₅, a competition ELISA was performed. […] Plates were then washed four times with wash buffer (TBS, 0.05% Tween-20) and blocked with Superblock blocking buffer (Thermo Scientific, cat#37535). […] The samples were added to wells and incubated for 30 minutes at 25° C. with shaking. […] Following incubation, plates were washed four times with wash buffer. Streptavidin-polyHRP-40 (Fitzgerald cat#65r-s104phrp) was diluted in assay diluent (10% Superblock containing 0.05% surfactamps) and added to plates (50 μL) for 45 minutes at 25° C. with shaking. Plates were washed four times with wash buffer and developed with the addition of Enhanced K-blue TMB substrate (Neogen cat#308177). The reaction was stopped with 2N sulfuric acid (VWR, cat# BDH3500-1) and the absorbance was read at 450 nm-570 nm. A decrease in observed optical density indicates the test molecule is blocking the human VEGF-R2-Fc binding to hVEGF₁₆₅. Data was analyzed using Softmax Pro 4.8 software and IC₅₀ values calculated using a sigmoidal dose response (variable slope) fit in GraphPad Prism 5.

[9] = target: T14, recombinant mouse VEGF-R2-Fc (R&D Systems cat#443-KD) (mouse, UniProt P35918 20-762); experiment: competition ELISA: antibody on coated mVEGFR2-Fc against mVEGF164 (Example 1.25)
T14 construct: Bought reagent; also called mVEGFR2-Fc; mVEGF-R2; not shown: Fc part of the bought fusion protein
T14 sequence (P35918 20-762 limits assumed): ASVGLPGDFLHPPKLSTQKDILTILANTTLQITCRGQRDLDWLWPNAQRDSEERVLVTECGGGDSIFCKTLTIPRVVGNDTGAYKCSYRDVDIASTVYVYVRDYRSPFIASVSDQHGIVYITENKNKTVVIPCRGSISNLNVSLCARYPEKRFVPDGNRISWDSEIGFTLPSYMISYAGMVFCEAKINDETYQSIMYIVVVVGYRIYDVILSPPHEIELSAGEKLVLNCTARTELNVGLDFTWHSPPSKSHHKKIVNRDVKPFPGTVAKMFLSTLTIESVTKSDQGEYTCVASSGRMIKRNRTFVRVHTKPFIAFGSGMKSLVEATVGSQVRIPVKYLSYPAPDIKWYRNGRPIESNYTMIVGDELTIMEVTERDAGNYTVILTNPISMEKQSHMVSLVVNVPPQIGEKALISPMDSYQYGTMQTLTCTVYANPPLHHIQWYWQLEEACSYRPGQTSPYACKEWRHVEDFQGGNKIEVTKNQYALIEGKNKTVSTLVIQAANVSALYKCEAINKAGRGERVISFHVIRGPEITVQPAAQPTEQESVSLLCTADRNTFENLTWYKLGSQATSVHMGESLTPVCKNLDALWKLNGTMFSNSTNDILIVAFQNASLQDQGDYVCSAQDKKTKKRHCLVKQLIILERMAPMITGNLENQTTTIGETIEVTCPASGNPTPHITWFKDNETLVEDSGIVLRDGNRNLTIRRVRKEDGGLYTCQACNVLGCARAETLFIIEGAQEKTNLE

[10] = target: T15, recombinant human VEGF-R2-Fc (human, UniProt P35968 20-764); experiment: competition ELISA: antibody added to coated hVEGF-R2-Fc, then biotin-hVEGF165
T15 construct: also called hVEGFR2-Fc; KDR/Flk-1; not shown: Fc part of the bought fusion protein
T15 sequence (P35968 20-764 limits assumed): as the sequence (P35968 20-764 limits assumed) above
Description: as §2

binding result (Recombinant rat FcRn): no binding (tested: FcRn 2.7 to 6000 nM) | Kd [5]: 11000 nM | Kd (Rat PDGF-BB): 0.003 nM | Kd (Cynomolgus monkey VEGF-A): 0.065 nM | Kd (Mouse PDGF-BB): 0.0003 nM | Kd (Rabbit PDGF-BB): 0.003 nM | Kd [6]: 0.0008 nM
B1: 9E10.1_GS_CL-33675 (PR-1610561), anti-VEGF-A/anti-PDGF-BB DVD-Ig, hu IgG1/k L234A L235A H435A (bispecific antibody)
heavy: EIQLVQSGSELKKPGASVKVSCKASGYTFTNYGMYWVKQAPGQGLEYMGWIDTETGRPTYADDFKGRFVFSLDTSVSTAYLQISSLKAEDTAVYFCARWSGDTTGIRGPWFAYWGQGTLVTVSSGGGGSGGGGSEVTLRESGPALVKPTQTLTLTCTFSGFSLSTYGMGVGWIRQPPGKALEWLANIWWDDDKYYNPSLKNRLTISKDTSKNQVVLTMTNMDPVDTATYYCARIESSGPKYSFDYWGQGTMVTVSSASTKGPSVFPLAPSSKSTSGGTAALGCLVKDYFPEPVTVSWNSGALTSGVHTFPAVLQSSGLYSLSSVVTVPSSSLGTQTYICNVNHKPSNTKVDKKVEPKSCDKTHTCPPCPAPEAAGGPSVFLFPPKPKDTLMISRTPEVTCVVVDVSHEDPEVKFNWYVDGVEVHNAKTKPREEQYNSTYRVVSVLTVLHQDWLNGKEYKCKVSNKALPAPIEKTISKAKGQPREPQVYTLPPSREEMTKNQVSLTCLVKGFYPSDIAVEWESNGQPENNYKTTPPVLDSDGSFFLYSKLTVDKSRWQQGNVFSCSVMHEALHNAYTQKSLSLSPGK
light: DIRMTQSPSSLSASVGDRVTIECLASEDIYSDLAWYQQKPGKSPKLLIYNANGLQNGVPSRFSGSGSGTDYSLTISSLQPEDVATYFCQQYNYFPGTFGQGTKLEIKGGSGGGGSGGEIVLTQSPGTLSLSPGERATLSCRASSGSIWYSFVSWYQQKPGQAPRLLIYADDQRASGIPDRFSGSGSGTDFTLTISRLEPEDFAVYYCQSYGINIDVVFGGGTKVEIKRTVAAPSVFIFPPSDEQLKSGTASVVCLLNNFYPREAKVQWKVDNALQSGNSQESVTEQDSKDSTYSLSSTLTLSKADYEKHKVYACEVTHQGLSSPVTKSFNRGEC
notes: also called 9E10.1-GS-33675; hu VEGF 9E10.1-GS-hu PDGF 33675 [hu IgG1/k]; LALA H435A
binding result [1]: no binding (tested: DVD-Ig 31.25 to 4000 nM) | binding result [2]: no binding (tested: DVD-Ig 31.25 to 4000 nM) | binding result [3]: no binding (tested: DVD-Ig 31.25 to 4000 nM) | binding result [4]: no binding (tested: DVD-Ig 31.25 to 4000 nM)

IC50 [10]: 0.498 nM
B4: chBCU-6B1-G6 (antibody, V domains shown)
VH: QIQLVQSGPELKKPGESVKISCKASGYTFTNYGMYWVKQAPGQALQFMGWINTETGQPTYADDFKGRFVFFLETSASTAYLQINNLKNEDMATYFCARLGNNYGIWFAYWGQGTLVTVSS
VL: DIQMTQSPASLSASLGETVTIECRASDDLYSTLAWYQQKPGDSPQLLIFDANRLAAGVPSRFSGSGSGTQYSLKINSLQSEDVASYFCQQYNKFPWTFGGGTKLELK
notes: also called chimeric BCU-6B1-G6

Continued, binder first:

B2: BDE-8H6-F7 (antibody, V domains shown)
VH: EVQLVESGGGLVQPGSSLKLSCLASGFTFSNYNMYWIRQAPKKGLEWIALIFYDNNNKYYADSVKGRFTISRDNSKNTLYLEMNSLRSEDTAMYYCLRDSGPFSYWGQGTLVTVSS
VL: DIQMTQSPPSLSASLGDKVTINCQAGQNIKKYIAWYQQEPGKVPRLLIRYTSKLESDTPSRFSGSGSGRDYSFSISNVESEDIASYYCLQYDNLPWTFGGGTKLELK
notes: Rat hybridoma anti-human PDGFR-B monoclonal antibody
binding result [7]: binds

B3: BCU-6B1-G6 (antibody, V domains shown)
VH: QIQLVQSGPELKKPGESVKISCKASGYTFTNYGMYWVKQAPGQALQFMGWINTETGQPTYADDFKGRFVFFLETSASTAYLQINNLKNEDMATYFCARLGNNYGIWFAYWGQGTLVTVSS
VL: DIQMTQSPASLSASLGETVTIECRASDDLYSTLAWYQQKPGDSPQLLIFDANRLAAGVPSRFSGSGSGTQYSLKINSLQSEDVASYFCQQYNKFPWTFGGGTKLELK
notes: Rat hybridoma anti-human VEGFR II monoclonal antibody, isotype IgG2a/κ
IC50 [8]: 4.85 nM | IC50 [9]: 1.35 nM
